This data set concerns the molecule itself. The data set is described as follows: crystal structure.

B1: nepetalactol-related short-chain dehydrogenase/reductase 3 (NEPS3) from Nepeta mussinii (enzyme)
chain: MANNSVMMKKKLEGKVAIVTGGASGIGEATARLFVKYGARAVVIADIQSELGRSVAESIGKERCSFVQCDVADEEQVKSMIEWTATTYGGLDVMFSNAGVLNSAAQTVKDLDLPLFDKVMRVNTRGAAVCVKQAARKMVELGRGGSIICNAGSSAVRGAHGVTDYVMSKHAVIGLVRSASMQLGAHSIRVNSVSPMAVATPLTRNQGISTPDDVQKFLMPFISLKGVPPTAEQVAEAAAFLGSDEAAFVTGHDLPVDGGVLCMPFLLGSA
For orientation: stoichiometry N means a count of units in the complex or per binding partner. B1: the “stoichiometry N” value was determined as 4.
